Assay [1] concerns the target Ire1^bipless, GFP- and mCherry-tagged copies (FRET pair) (yeast) (UniProt P32361). Description: FRET or BRET; microscopy-based FRET (spinning disc confocal) between GFP- and mCherry-tagged copies co-expressed in live yeast cells; cells treated with 5 mM DTT for 4 h (for Ire1^bipless only 'in the presence of DTT' is printed).
For assay [2] the target is unchanged. Description: FRET or BRET; microscopy-based FRET (spinning disc confocal) between GFP- and mCherry-tagged copies co-expressed in live yeast cells; untreated cells (no DTT).

“Ire1^bipless, GFP- and mCherry-tagged copies (FRET pair) (from UniProt P32361 19-474; P32361 527-1115) (natural protein)”: the FRET signal worked out at 0.71 a.u in assay [1] and 0.17 a.u in assay [2].

For the origin of these results see article PMC2897766.
